This is an account of results in publication PMC2926597.

The target in the data set is T1, KSRP KH23 (KH2-KH3 di-domain) (Homo sapiens, UniProt Q92945 233-418).
T1 sequence: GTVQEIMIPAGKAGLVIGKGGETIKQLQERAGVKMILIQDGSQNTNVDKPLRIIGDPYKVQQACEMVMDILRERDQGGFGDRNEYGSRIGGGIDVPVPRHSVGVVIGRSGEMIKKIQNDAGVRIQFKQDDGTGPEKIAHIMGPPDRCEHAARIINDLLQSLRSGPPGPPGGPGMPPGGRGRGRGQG
As to the kind of experiment: CD titration.

Turning to UAUUUAUUAUUU (ssRNA) [TNFa ARE AU-12mer], the dissociation constant (Kd) was determined as 1000 ± 100 nM.
